Assay results published in PMC3276249 (Molecular Microbiology, 2012).

Experiments:
[1] = target: the molecule itself; assay: SEC
[2] = target: the molecule itself; assay: cross-linking

B1: Bcam0581 of Burkholderia cenocepacia J2315, hexahistidine-tagged (enzyme)
chain: MQLQSHPACRPFYEAGELSQLTAFYEEGRNVMWMMLRSEPRPCFNQQLVTDIIHLARVARDSGLTFDFWVTGSLVPELFNVGGDLSFFVDAIRSGRRDQLMAYARSCIDGVYEIYTGFGTGAISIAMVEGSALGGGFEAALAHHYVLAQKGVKLGFPEIAFNLFPGMGGYSLVARKANRGLAESLIATGEAHAAEWYEDCGLIDETFDAGDAYLATRTFIDVTKPKLNGIRAMLRARERVFQLSRSELMDITEAWVHAAFTIEPKDLAYMERLVMLQNRRVSKLRTV
stoichiometry N [1]: 3 | stoichiometry N [2]: ~3
